Changes are numbered by the printed parent chain. Names may count otherwise.
Columns and labels:
[1] = molecular target: N-terminally TAMRA-labeled monoubiquitin (UniProt P0CG47 1-76, TAMRA on the N-terminus); test: fluorescence polarisation
ubiquitin (untagged) = ubiquitin (untagged) (UniProt P0CG47 1-76); test: ITC

B1: USP4(8-925) wild-type (enzyme)
chain: RERPDAETQKSELGPLMRTTLQRGAQWYLIDSRWFKQWKKYVGFDSWDMYNVGEHNLFPGPIDNSGLFSDPESQTLKEHLIDELDYVLVPTEAWNKLLNWYGCVEGQQPIVRKVVEHGLFVKHCKVEVYLLELKLCENSDPTNVLSCHFSKADTIATIEKEMRKLFNIPAERETRLWNKYMSNTYEQLSKLDNTVQDAGLYQGQVLVIEPQNEDGTWPRQTLQSKSSTAPSRNFTTSPKSSASPYSSVSASLIANGDSTSTCGMHSSGVSRGGSGFSASYNCQEPPSSHIQPGLCGLGNLGNTCFMNSALQCLSNTAPLTDYFLKDEYEAEINRDNPLGMKGEIAEAYAELIKQMWSGRDAHVAPRMFKTQVGRFAPQFSGYQQQDSQELLAFLLDGLHEDLNRVKKKPYLELKDANGRPDAVVAKEAWENHRLRNDSVIVDTFHGLFKSTLVCPECAKVSVTFDPFCYLTLPLPLKKDRVMEVFLVPADPHCRPTQYRVTVPLMGAVSDLCEALSRLSGIAAENMVVADVYNHRFHKIFQMDEGLNHIMPRDDIFVYEVCSTSVDGSECVTLPVYFRERKSRPSSTSSASALYGQPLLLSVPKHKLTLESLYQAVCDRISRYVKQPLPDEFGSSPLEPGACNGSRNSCEGEDEEEMEHQEEGKEQLSETEGSGEDEPGNDPSETTQKKIKGQPCPKRLFTFSLVNSYGTADINSLAADGKLLKLNSRSTLAMDWDSETRRLYYDEQESEAYEKHVSMLQPQKKKKTTVALRDCIELFTTMETLGEHDPWYCPNCKKHQQATKKFDLWSLPKILVVHLKRFSYNRYWRDKLDTVVEFPIRGLNMSEFVCNLSARPYVYDLIAVSNHYGAMGVGHYTAYAKNKLNGKWYYFDDSNVSLASEDQIVTKAAYVLFYQRRDD
binding result [1]: binds

B2: USP4(8-925) C311A mutant (enzyme)
chain: B1 chain with C304A
Kd [1]: 0.6 ± 0.17 nM

B3: SAGA DUB module containing Ubp8^C146A (complex)
chain 1: MSICPHIQQVFQNEKSKDGVLKTCNAARYILNHSVPKEKFLNTMKCGTCHEINSGATFMCLQCGFCGCWNHSHFLSHSKQIGHIFGINSNNGLLFCFKCEDYIGNIDLINDAILAKYWDDVCTKTMVPSMERRDGLSGLINMGSTAFMSSILQCLIHNPYFIRHSMSQIHSNNCKVRSPDKCFSCALDKIVHELYGALNTKQASSSSTSTNRQTGFIYLLTCAWKINQNLAGYSQQDAHEFWQFIINQIHQSYVLDLPNAKEVSRANNKQCECIVHTVFEGSLESSIVCPGCQNNSKTTIDPFLDLSLDIKDKKKLYECLDSFHKKEQLKDFNYHCGECNSTQDAIKQLGIHKLPSVLVLQLKRFEHLLNGSNRKLDDFIEFPTYLNMKNYCSTKEKDKHSENGKVPDIIYELIGIVSHKGTVNEGHYIAFCKISGGQWFKFNDSMVSSISQEEVLKEQAYLLFYTIRQVN
chain 2: MTEETITIDSISNGILNNLLTTLIQDIVARETTQQQLLKTRYPDLRSYYFDPNGSLDINGLQKQQESSQYIHCENCGRDVSANRLAAHLQRCLSRGARR
chain 3: MTMDTAQLKSQIQQYLVESGNYELISNELKARLLQEGWVDKVKDLTKSEMNINESTNFTQILSTVEPKALEMVSDSTRETVLKQIREFLEEIVDTQ
chain 4: MRSGDAEIKGIKPKVIEEYSLSQGSGPSNDSWKSLMSSAKDTPLQYDHMNRESLKKYFNPNAQLIEDPLDKPIQYRVCEKCGKPLALTAIVDHLEN
Kd (ubiquitin (untagged)): 430 mM
